B1: ID3C (bispecific antibody)
chain: DVQLQESGGGLVQAGDSLRLSCAASGATLSSYTIGWFRQAPEKEREFVAGSSRDGRTNYYANSVKGRFTISRDNAKNTVYLQMNSLKPEDTAVYYCAAHTTSGVPVRERSYAYWGQGTQVTVSSGGGGSGGGGSGGGGSGGGGSDVQLQESGGGLVQAGGSLRLSCAASGATSDVYAIGWFRQVPGKEREFVATINRSGSDSYYADSVKGRFTISRDNAKNTVYLQMNSLKPEETAVYYCAASRSDCIGYGCRRVSQDYWGQGTQVTVSSGGGGSGGGGSGGGGSGGGGSDVQLQESGGGLVQAGGSLRLSCVISGMDFSHKPAGWFRQAPGKEREFVASITTRASTHYADSVKGRFTISRDNAKNTVYLEMNSLKPEDTAVYYCNSEYYWGQGTQVTVSSGGGGSGGGGSGGGGSGGGGSDVQLQESGGGLVQAGGSLRLSCAASGATFSSYYIGWFRQAPGKEREFVAAINGSGGNRISADSVKGRFTISRDNAKNTVYLQLNSLKPEDTAVYYCAASLTYYGRSARYDYWGQGTQVTVSS
B2: ID1C (bispecific antibody)
chain: DVQLQESGGGLVQAGGSLRLSCAASGATSDVYAIGWFRQVPGKEREFVATINRSGSDSYYADSVKGRFTISRDNAKNTVYLQMNSLKPEETAVYYCAASRSDCIGYGCRRVSQDYWGQGTQVTVSSGGGGSGGGGSGGGGSGGGGSDVQLQESGGGLVQAGGSLRLSCVISGMDFSHKPAGWFRQAPGKEREFVASITTRASTHYADSVKGRFTISRDNAKNTVYLEMNSLKPEDTAVYYCNSEYYWGQGTQVTVSSGGGGSGGGGSGGGGSGGGGSDVQLQESGGGLVQAGDSLRLSCAASGATLSSYTIGWFRQAPEKEREFVAGSSRDGRTNYYANSVKGRFTISRDNAKNTVYLQMNSLKPEDTAVYYCAAHTTSGVPVRERSYAYWGQGTQVTVSSGGGGSGGGGSGGGGSGGGGSDVQLQESGGGLVQAGGSLRLSCAASGATFSSYYIGWFRQAPGKEREFVAAINGSGGNRISADSVKGRFTISRDNAKNTVYLQLNSLKPEDTAVYYCAASLTYYGRSARYDYWGQGTQVTVSS

Tests used:
[1] = target: T1, TcdB from C. difficile ribotype 087 (Clostridium difficile ribotype 087 …, UniProt P18177 2-2366); test: sandwich ELISA: TcdB coated, quadrahead, then TcdA, rabbit anti-TcdA pAb
T1 construct: also called 087 TcdB; 10463 (087)

[2] = target: T2, TcdB from C. difficile ribotype 027 (Clostridium difficile ribotype 027 …, UniProt P18177 2-2366); test: as above
T2 construct: also called 027 TcdB; R20291 (027)

[3] = target: T1, TcdB from C. difficile ribotype 087; test: sandwich ELISA (figure legend)
[4] = target: T2, TcdB from C. difficile ribotype 027; test: ELISA, TcdB coated, quadrahead detected with rabbit polyclonal anti-ICVD

Row | Binder | binding result [1] | binding result [2] | binding result [3] | binding result [4]
1 | B1 | binds | binds | – | –
2 | B2 | – | – | binds | binds

Source: US20180100008A1 (VHSQUARED, published 2018)
